This note sets out measurements from the nanobody polyreactivity screen of Harvey et al. (2022).

A short description of this data set: yeast display, Sf9 membrane polyspecificity reagent, FACS + sequencing; frameworks hold sequencing errors. The method, boiled down: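 Sorting gates, low and high (top ~1%), were placed on anti-HA fluorescence to track expression and on streptavidin fluorescence to track reagent binding. A clone's polyreactivity label is taken from the gate it came out of. The reagent was 10% biotinylated, detergent-solubilized Sf9 membrane, applied for 1 hour at 4 °C to galactose-induced yeast display cells.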
For “QVQLVESGGGLVQAGGSLRLSCAASGSIFSQYAMGWYRQAPGKEREFVAAINWSGGRTRYADSVKGRFTISRDNAKNTVYLEMKSLKPEDTAVYYCNARGYSGVSGKYGYWGQGTQVTVSS”, the “polyreactivity (PSR sort gate)” value is on record as “high polyreactivity”. With “QVQLVESGGRLVQAGGSLRLSCAASGRTFYHNAMGWYRQAPGKERELVAVITWSGGSTYYADSVKGRFTISRDNAKNTVYLQMNSLKPEDTAVYYCATRRYGYERILYNYWGQGTQVTVSS”, the “polyreactivity (PSR sort gate)” value was “high polyreactivity”. With “QVQLVESGGGLVQAGGSLRLSWAASGSIFYWNAMGWYRQAPGKERELVATITITTSTNYADSVKGRFTISRDNAKNTVYLQMNSLKPEDTAVYYCNAGAPYRYLDEYNYWGQGTQVTVSS”, the “polyreactivity (PSR sort gate)” value is recorded as “low polyreactivity”. On to “QVQLVESGGGLVQAGGSLRLSCAASGSIFSYNAMGGYRQAPGKERELVAGITSGASTNYADSVKGRFTISRDNAKNTVYLQMNSLKPEDTAVYYCNADDIFRPRDDLYDYWGQGTQVTVSS”, for which the “polyreactivity (PSR sort gate)” value was “low polyreactivity”. For “QVQLVESGGGLVQAGGSLRVSCAASGNTFYYTMGWYLQAPGKERELVATISYDGTSTYYADSVKGRFTISRDNAKNTVYLQKNSLKPEDTAVYYSSAYGTVVTLNDYWGQGTQVTVSS”, the “polyreactivity (PSR sort gate)” value was “low polyreactivity”.

As for “QGQLVESGGALVQAGGSLRLICAASGRTFAAYSMGWYRQAPGKERELVAAISIGGSTNYADSVKVRFTISRDNAKNSVYLQMNSLKPEDSAVYYCAAPGRRYLRARIRYEYWGQGTQLTVSS”, the “polyreactivity (PSR sort gate)” value was “high polyreactivity”.

With “LVLLVESGGGLVQAGGSLRLSCAASGSSLDWYAMGWYRQAPGNVRELVASLSYSGGTTYYADSVTVRFTISRDNAKNTVYLQMISLKPDDTAVDYCATDLLNNVDYDYWGQGTQVTVSS”, the “polyreactivity (PSR sort gate)” value is listed as “low polyreactivity”. Consider “QVQLVESGGGLVQAGGSLRLSCAASGRTFSLYTMGWYRQAPGKERELVAAISSGDSTNYADSVKGRFTISRDNAKNTVYLQMNSLKPEDTAVYYCAKQQDSTSEFSTSDRRQYDYWGQGTQVTVSS”, for which the “polyreactivity (PSR sort gate)” value is given as “low polyreactivity”. Regarding “QVQLVESGGGLVQAGGSLRLSCAASGLTFGRNVMGWYRQAPGKERELVAAISWRGDSTYYADSVKGRFTISRDNAKNTGYLQMNSLKPEDTAVYYCAVRYYRGSVASGSDYWGQGTQVTVSS”, the “polyreactivity (PSR sort gate)” value is given as “high polyreactivity”. For “QVQLVESGGGLVQAGGSLRLSCAASGGWYRQAPGKERELVAAISWRDSSTYYADSVKGRFTISRDNAKNTVYLQMNSLKPEDTAVYYCAVRAYPWPEYYYWGQGTQVTVSS”, the “polyreactivity (PSR sort gate)” value is reported as “low polyreactivity”. “QVQLVESGGGLVQAGGSLRLSCAASGSIFWGNAMGWYRQAPGKERELVAAIRRGTSTYYADSVKGRFTISRDNAKNTVYLQMNSLKPEDTAVYYCAAEGWTTPTPTSDDNQWWYDYWGQGTQVTVSS”: the “polyreactivity (PSR sort gate)” value is recorded as “high polyreactivity”.

Turning to “QVQLVESGGGLVQAGGSLRLSSAASGSTFAFNAMGWYRHAHGKEREFVARITWSDGSTYYADSVKGRFTISRDNAKNTVYLQMNCLKPEDTAVYYCARDPTEQAIARWTYDYWGQGTQVTVSS”, the “polyreactivity (PSR sort gate)” value is recorded as “low polyreactivity”.

With “QVQLVESGGGLVQAGGSLRLSCAASGRIFYTNAMGWYRQAPGKERELVAGIRFNGGSTYYADSVKGRFTISRDNAKNTVYLQMNSLKPEDTAVYYCAVRTYYSGYDSWGQGTQVTVSS”, the “polyreactivity (PSR sort gate)” value is recorded as “low polyreactivity”. On to “QVQLVESGGGLVQAGGSLRLSCAASGSIFYVYAMGWYRQAPGKERELVAAITSSGTTNYADSVKGRFTISRDNAKNTVYLQMNSLKPEDTAVYYCAADPDSGQVPFDYWGQGTQVTVSS”, for which the “polyreactivity (PSR sort gate)” value is listed as “low polyreactivity”. In the case of “QVQLVESGGGLVQAGGSLRLSCAASGSTFNRYAMGWYRQAPGKERELVASITTSDSTNYADSVNGRFTISRDNANNTVFLQINSLNPEDTAVYYCNAEVRGVWYTYDYWGQGTHVTVSS”, the “polyreactivity (PSR sort gate)” value is on record as “low polyreactivity”. As to “QVQLVESWGGLVEAGGSLRLSCAASGRTFRSYAMVWYRQAPWKERELVAAISDGGSTNYADSVKGRFTISRDNAKNTVYLQMNSLKPEDTAVYYCAAVIFFAVFRFYYWGQGTQVTVSS”, the “polyreactivity (PSR sort gate)” value is on record as “low polyreactivity”.

“QVQLVESGGGLVQAGCSLRLICAASRSTFTDNAMGWYRQAPGKESELVAAISTGTSTYADSVKGRFTISRDNATNTVYLQMNRLKPEDTAGYYCAADVGIRPLNYHPYNYWGQGTQVTVSS”: the “polyreactivity (PSR sort gate)” value was “low polyreactivity”.

Regarding “QVQLVESGGGLVQAGGSLRLSCAASGRTFGRYVMGWYRQAPGKERDLVAAITGVGSTKYADSVKGRFTISRDNAKNTVYLQMNSLKPEDTAVYYCAKRYLYDRRHAEYWAANDYWGQGTQVTVSS”, the “polyreactivity (PSR sort gate)” value is reported as “low polyreactivity”. In the case of “QVQLVESGGGLVQAGGSLRLSCATSGYTFTRYAMGWYRQAPGKERELVASISKTGGITYYADSVKGRFTISRDNAKNTVYLQMNSLKPEDTAVYYCNAVSKRRWAKYDYWGQGTQVTVSS”, the “polyreactivity (PSR sort gate)” value was “high polyreactivity”. Next, “QVQLVESGGGLVQAGGSLRLSCAASGIIFEGNVMGWYRQAPGKERELVAAITSDTSTNYADSVKGRFTISRDNAKNTVYIQMNSLKPEDTAVYYCNAVIGTDYYYSGTAEFYYWGQGTQVTVSS”: “low polyreactivity”; “QVQLQVSGGHLVQAGGSLRLSCAASGTIYGLTSMGWYSQAPGKEREFVAAITDGGNTNYADSVKGRFTISRDNAKNTVYLQMISLKPEDTSVYYCAFLFSDDAYFAYWGQGTQVTLSS”: “low polyreactivity”. With “QVQLVESGGGLVQAGGSLRLSCAASGYIFDYYAMGWYRQAPGKESELVAAISSSGGTTYYADSVKGRFTISRDNAKNTFYLQMNSLKPEDTAVYYCAARKSRWHRGYYYWGQGTQVTVSS”, the “polyreactivity (PSR sort gate)” value is recorded as “high polyreactivity”.

On to “QVQLVESGGGLVQAGGSLRLSCAASGSIYYHNAMGWYRQAPGKERELVAAITGSGGSTYYADSVKGRFTISRDNAKNTVYLQMNSLKPEDTAVYYCAADGYTKWWISWGYDYWGQGTQVTVSS”, for which the “polyreactivity (PSR sort gate)” value is “low polyreactivity”. As to “QVQLVESGGGLVQAGGSLRLRCAASGHIFRQYAMGWYRQAPGKERELVAAITSGGSTYYADSVKGRFTISRDNAKNTVYLEMNSLKPEDNAVYYCADKYFFSYRHGDYWGQGNQVTVSS”, the “polyreactivity (PSR sort gate)” value is reported as “low polyreactivity”. For the sequence “QVQLVESGGGLVQAGGSLRLSFAASGRIFQFYGMGWYRQAPGKEREFVAAITRNGGNTYYADSVKGRYTISRDNAKNTVDLQMNSLKPEDTAVYYCAAANPRDHRGANDYWGQGTQVTVSS”, the “polyreactivity (PSR sort gate)” value is “high polyreactivity”. On to “QVQLVESGGGLVQAGGSLRLSCAASGFIFPAYAMGWYRQAPGKERELVAGITSRGGSTYYADSVKGRFTISRDNAKNTVYLQMNSLKPEDTAVYYCAKPYHWPWTRFDYWGQGTQVTVSS”, for which the “polyreactivity (PSR sort gate)” value is “low polyreactivity”. Regarding “QVQLVESGGGLVHAGGSLRLSCSASGFTFYKYAMGWYRQAPGKERELVAAFSYSGGSTYYADSVKGRFTISRDNAKNTVYLQMNSLKPEDTAVYYCAARVRGTGYNSWGQGTLVTVSS”, the “polyreactivity (PSR sort gate)” value was “high polyreactivity”. Next, “QDQLVESGGGLVQAGGSLRLSCAASGSTFGYYAMGWYRQAPGKERELVAAISWRGGTYYADSVKGRFTISRDNAKNTVYLQMNSLKPEDTAVYYCAADDYIVSRYRYGVRYGYWGQGTQVTVSS”: “high polyreactivity”; “QVQLVESGGGLVQAGGSLRLSCAASGFIFWYNAKGWYRQAPGKERELVAAISSGGSTHYADSVKGRFTISRDNAKNTVYLLMNSLKPEDTAVYYCNTDGYHSNRLDDYDYWRQGTQVTVSS”: “low polyreactivity”; “QVQLVESGGGLVQAGGSLRLSCAASGNTFHTNAMGWYRQAPGKERELVAAITGGGSTYYADSVKGRFTISRDNAKNTVYLQMNSLKPEDTAVYYCNTDVPYGLDVSDTIDYYYWGQGTQVTVSS”: “low polyreactivity”.
